Assay results reported in doi:10.1101/2025.03.30.646161.

Test system: P04156
Conditions: AUC

Recombinant huPrP (23-230) from E. coli
percent of total signal as aggregates: about 71 % of total signal
percent of total signal as large aggregates: 58.3 % of total signal
